# Laboratory results from PMC11601148, “Effects of proline substitution/inclusion on the nanostructure of a self-assembling β-sheet-forming peptide†” (RSC Advances, 2024).
# Columns and labels:
# [1] = molecular target: the molecule itself; experiment: ITC; NaOH (0.0025, 0.0125, 0.025 M) titrated into peptide at 0.1, 0.5 and 1 mg/mL in water, 25 °C; the energy change on deprotonation is read as a sign of self-assembly, no binding constant is fitted
# [2] = molecular target: the molecule itself; experiment: SAXS + WAXS; peptide samples at 5 and 10 mg/mL in quartz capillaries, beamline I22 at Diamond Light Source, water as background
protein,measurement,setting,value
"FEFKPEFKF (FP with one more phenylalanine at the C-terminal end; also called KEP; source: synthetic peptide, bought: Biomatik LLC (HCl salt, >90% purity))",binding result,[1],binds
"FEFEPKFKF (KPE with the polar residues shuffled: glutamic acids on one side of the proline, lysines on the other; source: synthetic peptide, bought: Biomatik LLC (HCl salt, >90% purity))",binding result,[2],binds
"FEFKFEFK (also called F8; source: synthetic peptide, bought: Biomatik LLC (HCl salt, >90% purity))",binding result,[1],binds
